Assays:
[1] = molecular target: CD30 expressed on L540 cells (Homo sapiens (Human)) (UniProt P28908)
[2] = molecular target: FcγRIIIa Phe/Phe^158 on human effector cells (human) (UniProt P08637)
[3] = molecular target: CD30 expressed on L540 cells (Homo sapiens (Human)) (UniProt P28908); assay: flow cytometry on CD30-expressing L540 cells, FITC-labeled goat anti-human secondary

Sequence of UniProt P28908 (P28908 19-595 limits assumed): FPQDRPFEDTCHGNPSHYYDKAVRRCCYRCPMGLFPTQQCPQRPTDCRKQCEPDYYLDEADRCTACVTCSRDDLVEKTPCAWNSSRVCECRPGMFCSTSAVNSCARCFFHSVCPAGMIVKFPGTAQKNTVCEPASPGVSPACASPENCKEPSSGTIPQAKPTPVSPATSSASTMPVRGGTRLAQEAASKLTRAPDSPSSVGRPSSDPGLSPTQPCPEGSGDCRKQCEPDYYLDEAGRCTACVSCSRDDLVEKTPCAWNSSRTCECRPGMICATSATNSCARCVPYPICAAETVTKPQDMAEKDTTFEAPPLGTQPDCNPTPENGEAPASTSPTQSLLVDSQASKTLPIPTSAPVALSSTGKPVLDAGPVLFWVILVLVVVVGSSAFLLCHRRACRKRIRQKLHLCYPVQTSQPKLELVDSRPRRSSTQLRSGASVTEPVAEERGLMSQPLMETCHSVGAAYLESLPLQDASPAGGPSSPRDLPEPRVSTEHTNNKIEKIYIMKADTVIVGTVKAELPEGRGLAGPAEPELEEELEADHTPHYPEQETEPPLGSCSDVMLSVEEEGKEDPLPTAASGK

Row | Substance | ADCC, maximal percent cell lysis (heterozygous FcγRIIIa Phe/Val^158 effector cells) [1] [%] | ADCC, maximal percent cell lysis (homozygous FcγRIIIa Phe/Phe^158 effector cells) [2] [%] | EC50 [3] [µg/mL] | ADCC EC50, times lower than MDX-060 CHO (FcγRIIIa Val/Phe^158 effector cells) [1] [times lower] | ADCC EC50, times lower than MDX-060 LEX (FcγRIIIa Val/Phe^158 effector cells) [1] [times lower] | ADCC EC50, times lower than MDX-060 CHO (FcγRIIIa Phe/Phe^158 effector cells) [2] [times lower]
1 | MDX-060 CHO (antibody) | 31 | 15 | 0.18 | – | – | –
2 | MDX-060 LEX (antibody) | 31 | 27 | 0.227 | – | – | –
3 | MDX-060 LEX^Opt (antibody) | – | – | 0.196 | 5 | 3 | 3

Source: patent US8716557B2
